Experimental data taken from publication PMC3353549 (Developmental Cell, 2012).
Residue numbers refer to the chain shown, from its start. Names and notes keep the numbering of the source. Values belong to the binder of their own block, whether it stands above or below them.

Key:
Experiment in all cases: SEC
[1] = molecular target: (CENP-A/H4)2 heterotetramer (human, UniProt P49450 1-140; P62805 1-103)
(CENP-A^S68Q/H4)2 = (CENP-A^S68Q/H4)2 (human, UniProt P49450 1-140; P62805 1-103, S68Q)
[2] = molecular target: CENP-A^H115A/L128A/H4 heterodimer (human, UniProt P49450 1-140; P62805 1-103, H115A | L128A)
Sequence of CENP-A^H115A/L128A/H4 heterodimer (P49450 whole entry H115A/L128A, one chain of several): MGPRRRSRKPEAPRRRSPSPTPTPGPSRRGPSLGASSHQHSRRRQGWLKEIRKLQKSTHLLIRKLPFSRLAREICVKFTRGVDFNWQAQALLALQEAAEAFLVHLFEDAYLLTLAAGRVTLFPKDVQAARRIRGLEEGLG

Sequence of (CENP-A/H4)2 heterotetramer (P49450 whole entry, one chain of several): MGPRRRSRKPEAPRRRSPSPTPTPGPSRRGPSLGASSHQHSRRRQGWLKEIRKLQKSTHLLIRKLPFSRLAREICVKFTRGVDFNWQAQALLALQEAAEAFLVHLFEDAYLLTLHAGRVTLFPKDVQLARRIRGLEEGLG
Sequence of (CENP-A^S68Q/H4)2 (P49450 whole entry S68Q, one chain of several): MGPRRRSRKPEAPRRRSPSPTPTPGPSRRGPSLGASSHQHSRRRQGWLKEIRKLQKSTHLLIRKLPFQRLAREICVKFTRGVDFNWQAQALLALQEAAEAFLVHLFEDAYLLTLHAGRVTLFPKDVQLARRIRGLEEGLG

binding result [1]: binds
B1: MBP-HJURP^1–62 (domain or fragment)
chain: MLGTLRAMEGEDVEDDQLLQKLRASRRRFQRRMQRLIEKYNQPFEDTPVVQMATLTYETPQG

binding result [1]: binds
binding result ((CENP-A^S68Q/H4)2): binds
binding result [2]: binds
B2: MBP-HJURP^1–80 (domain or fragment)
chain: MLGTLRAMEGEDVEDDQLLQKLRASRRRFQRRMQRLIEKYNQPFEDTPVVQMATLTYETPQGLRIWGGRLIKERNEGEIQ

binding result [1]: binds
B3: MBP-HJURP^1–80/W66A (domain or fragment)
chain: B2 chain with W66A
